Earlier results on one substance are cited in article PMC8239176.

The data set concerns the target KLC1 (Homo sapiens) (UniProt Q07866).
UniProt Q07866, sequence (Q07866 whole entry): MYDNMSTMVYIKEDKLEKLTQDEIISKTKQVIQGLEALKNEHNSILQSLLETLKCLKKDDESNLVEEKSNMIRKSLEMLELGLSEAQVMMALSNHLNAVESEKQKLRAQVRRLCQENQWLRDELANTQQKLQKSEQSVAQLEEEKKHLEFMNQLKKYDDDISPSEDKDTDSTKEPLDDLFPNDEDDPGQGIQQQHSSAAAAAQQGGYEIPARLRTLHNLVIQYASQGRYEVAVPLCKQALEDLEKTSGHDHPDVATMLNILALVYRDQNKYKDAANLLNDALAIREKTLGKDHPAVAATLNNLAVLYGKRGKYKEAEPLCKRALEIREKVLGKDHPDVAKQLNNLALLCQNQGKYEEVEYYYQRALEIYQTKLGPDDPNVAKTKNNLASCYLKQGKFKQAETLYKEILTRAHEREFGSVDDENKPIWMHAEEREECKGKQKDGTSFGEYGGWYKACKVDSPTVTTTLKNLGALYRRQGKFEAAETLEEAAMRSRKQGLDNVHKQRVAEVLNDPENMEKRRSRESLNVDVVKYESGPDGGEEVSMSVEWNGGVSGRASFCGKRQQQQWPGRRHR

As a reminder, the Kd is the constant that tells how readily two partners part at equilibrium. Take SFPQ (from UniProt P23246): the Kd is 3.8 µM.
